In patent publication US8252521B2, “Method of screening substance useful in treating disease with the use of GPR40 and phospholipase” (Eisai R&D Management Co., Ltd., priority 2005, dated 2012):

T1: human GPR43 (Homo sapiens, UniProt O15552)
T1 construct: expressed in transfected cells; host or cells: SE302 cells (HEK293 clone carrying a CRE4-VIP promoter PLAP reporter), infected with retrovirus made from pBabeCL(GPR43)IH and selected with hygromycin
T1 sequence (O15552 1-330): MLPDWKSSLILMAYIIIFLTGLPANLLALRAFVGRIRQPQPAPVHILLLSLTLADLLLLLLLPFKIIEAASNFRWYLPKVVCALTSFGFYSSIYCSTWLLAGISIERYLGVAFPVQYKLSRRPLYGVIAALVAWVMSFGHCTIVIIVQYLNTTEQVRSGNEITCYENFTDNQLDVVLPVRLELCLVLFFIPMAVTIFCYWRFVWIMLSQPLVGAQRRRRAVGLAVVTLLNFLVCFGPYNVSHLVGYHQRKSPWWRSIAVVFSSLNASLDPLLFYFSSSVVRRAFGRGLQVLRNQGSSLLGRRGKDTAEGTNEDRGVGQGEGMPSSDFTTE


Columns and labels:
Format in all cases: cell-based
Conditions in all cases: forskolin 0.3 μM, 24 hours with sample
human GPR40 = target: T2, human GPR40 (Homo sapiens, UniProt O14842); assay: PLAP reporter transcription activity in GPR40-SE302 cells
T2 construct: expressed in transfected cells; host or cells: SE302 cells (HEK293 clone carrying a CRE4-VIP promoter PLAP reporter), infected with retrovirus made from pBabeCL(GPR40)IH and selected with hygromycin
T2 sequence (O14842 whole entry): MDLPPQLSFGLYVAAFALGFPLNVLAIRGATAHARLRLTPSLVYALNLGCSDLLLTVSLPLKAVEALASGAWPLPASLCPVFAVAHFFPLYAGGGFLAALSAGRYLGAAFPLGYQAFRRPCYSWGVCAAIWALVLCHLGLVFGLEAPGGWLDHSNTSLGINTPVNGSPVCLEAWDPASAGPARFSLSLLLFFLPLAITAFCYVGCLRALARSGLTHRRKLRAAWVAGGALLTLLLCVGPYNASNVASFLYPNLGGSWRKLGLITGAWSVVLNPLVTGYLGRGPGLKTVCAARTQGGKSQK
Method: (§1) The GPR40-SE302 cells and GPR43-SE302 cells constructed in Examples 6 and 7 described above were suspended in a culture medium for measurement of transcription activity (DMEM containing FBS, which was heat-treated at 65° C. for 30 min, at a final concentration of 10%) and seeded onto a 96 well plate (Becton Dickinson, Co.) at 1×10^4 cells/well. In addition, as control cells, SE302 cells expressing green fluorescent protein (GFP, Invitrogen Corporation) (referred to as “GFP-SE302 cells” hereinafter) were used. Specifically, GFP-302 cells were prepared by obtaining a virus for expressing GFP using the method shown in Example 3 and 4, and transfecting SE302 cells with the virus using the method shown in Example 6. Cells were cultured for 24 hours after seeding, and forskolin prepared at a final concentration of 0.3 μM and a sample were added. Cells were cultured for another 24 hours, and 5 μL of the cell supernatant was recovered and transferred to a polypropylene 384-well white plate (Nalge Nunc International, Co.). Then, 20 μL of the assay buffer (280 mmol/L Na2CO3—NaHCO3, 8 mmol/L MgSO4, pH 10) and 25 μL of Lumiphos530 (Lumigen, Co.) were added. Following a 2-hour reaction at room temperature, chemiluminescence in each well was measured using a Fusion plate reader (Perkin Elmer, Co.) and was defined as the transcription activity. Based on these measured levels, stimulation/inhibition of transcription activity was calculated using the equation (I) shown below and described as [% of control]. Activities of the group with a sample added were calculated using the level of a control placed on each plate. [% of control]=(X−C)/(F−C)×100 (I) wherein,
(§2) X: PLAP transcription activity in the group added with a sample,
(§3) F: Mean level of transcription activity in 2 wells of a positive control (no sample added, stimulated with forskolin), and
(§4) C: Mean level of transcription activity in 2 wells of a negative control (no sample added, not stimulated with forskolin).

human GPR43 = target: T1, human GPR43; assay: PLAP reporter transcription activity in GPR43-SE302 cells
Method: as §1, §2, §3, §4

GFP-SE302 cells = assay: PLAP reporter transcription activity in GFP-SE302 control cells
Method: as §1, §2, §3, §4

Row | Molecule | PLAP activity in GPR40-SE302 cells (human GPR40) | PLAP activity in GPR43-SE302 cells (human GPR43) | PLAP activity in GFP-SE302 cells (GFP-SE302 cells)
1 | porcine pancreatic sPLA2: Phospholipase A2 from porcine pancreas, Sigma; primarily Group IB secretory phospholipase A2 (Swiss Prot P00592) | concentration dependent elevation of PLAP activity | no elevation of PLAP activity | no elevation of PLAP activity
2 | C-terminal FLAG tagged hGX-sPLA2: C-terminal FLAG-tagged human GX-sPLA2 (SEQ ID NO: 41), purified from silkworm pupa extract (protein, listed as Homo sapiens, C-terminal FLAG tag) MGPLPVCLPIMLLLLLPSLLLLLLLPGPGSGEASRILRVHRRGILELAGTVGCVGPRTPIAYMKYGCFCGLGGHGQPRDAIDWCCHGHDCCYTRAEEAGCSPKTERYSWQCVNQSVLCGPAENKCQELLCKCDQEIANCLAQTEYNLKYLFYPQFLCEPDSPKCDDYKDDDDK | concentration-dependent elevation of PLAP activity | no elevation of PLAP activity | no elevation of PLAP activity
3 | mGX-sPLA2-His: purified mouse C-terminal His-tagged Group X secretory phospholipase A2, expressed in Sf9 cells (protein, UniProt Q9QXX3 29-151, looked up, C-terminal His6 tag, purified mouse C-terminal His-tagged Group X secretory phospholipase A2, expressed in Sf9 cells) Group 10 secretory …: GLLELAGTLDCVGPRSPMAYMNYGCYCGLGGHGEPRDAIDWCCYHHDCCYSRAQDAGCSPKLDRYPWKCMDHHILCGPAENKCQELLCRCDEELAYCLAGTEYHLKYLFFPSILCEKDSPKCN | concentration dependent elevations of PLAP activity | – | no specific elevation of PLAP activity
4 | C-terminal FLAG tagged mGX-sPLA2: C-terminal FLAG-tagged mouse GX-sPLA2 (SEQ ID NO: 43), purified from Sf-9 culture supernatant (protein, listed as Mus musculus, C-terminal FLAG tag) MLLLLLLLLLGPGPGFSEATRRSHVYKRGLLELAGTLDCVGPRSPMAYMNYGCYCGLGGHGEPRDAIDWCCYHHDCCYSRAQDAGCSPKLDRYPWKCMDHHILCGPAENKCQELLCRCDEELAYCLAGTEYHLKYLFFPSILCEKDSPKCNDYKDDDDK | concentration-dependent elevation of PLAP activity | no elevation of PLAP activity | no elevation of PLAP activity
5 | hGX-sPLA2-His: purified human C-terminal His-tagged Group X secretory phospholipase A2, expressed in Sf9 cells (protein, UniProt O15496 43-165, looked up, C-terminal His6 tag, purified human C-terminal His-tagged Group X secretory phospholipase A2, expressed in Sf9 cells) Group 10 secretory …: GILELAGTVGCVGPRTPIAYMKYGCFCGLGGHGQPRDAIDWCCHGHDCCYTRAEEAGCSPKTERYSWQCVNQSVLCGPAENKCQELLCKCDQEIANCLAQTEYNLKYLFYPQFLCEPDSPKCD | concentration dependent elevations of PLAP activity | – | no specific elevation of PLAP activity
